Reference: paper doi:10.1101/2020.10.15.341636 (bioRxiv, 2020)

B1: mAb 324 IgG (antibody, V domains shown)
VH: QVQLVQSGAEVKKPGASVKVSCKASGGTFNNYGISWVRQAPGQGLEWMGWMNPNSGNTGYAQKFQGRVTMTRDTSTSTVYMELSSLRSEDTAVYYCARVGDYGDYIVSPFDLWGRGTLVTVSS
VL: DIQMTQSPSSLSASVGDRVTITCRASQSITTYLNWYQQKPGKAPKLLIYDASNLETGVPSRFSGSGSGTDFTLTISSLQPEDFATYYCQQSYSTPPTFGQGTKVEIK
B2: mAb 298 IgG (antibody, V domains shown)
VH: QVQLVQSGAEVKKPGASVKVSCKASGGTFSTYGISWVRQAPGQGLEWMGWISPNSGGTDLAQKFQGRVTMTRDTSTSTVYMELSSLRSEDTAVYYCASDPRDDIAGGYWGQGTLVTVSS
VL: not shown
B3: Fab 298 (Fab, V domains shown)
VH: B2 VH
VL: not shown
B4: mAb 236 IgG (antibody, V domains shown)
VH: QVQLVQSGAEVKKPGASVKVSCKASGGTFTSYGINWVRQAPGQGLEWMGWMNPNSGNTGYAQKFQGRVTMTRDTSTSTVYMELSSLRSEDTAVYYCASRGIQLLPRGMDVWGQGTTVTVSS
VL: not shown
B5: mAb 52 IgG (antibody, V domains shown)
VH: QVQLVQSGAEVKKPGSSVKVSCKASGYTFTSYGISWVRQAPGQGLEWMGGIIPMFGTTNYAQKFQGRVTITADKSTSTAYMELSSLRSEDTAVYYCARDRGDTIDYWGQGTLVTVSS
VL: DIQMTQSPSSLSASVGDRVTITCRASQGISNNLNWYQQKPGKAPKLLIYAASSLESGVPSRFSGSGSGTDFTLTISSLQPEDFATYYCQQGNGFPLTFGPGTKVDIK
B6: Fab 52 (Fab, V domains shown)
VH: B5 VH
VL: B5 VL

Columns and labels:
[1] = target: T1, SARS-CoV-2 wild type RBD (BEI NR52309) (Severe acute respiratory syndrome …, UniProt P0DTC2); test: BLI
[2] = target: T1, SARS-CoV-2 wild type RBD (BEI NR52309); test: crystal structure

Row | Binder | binding result [1] | binding result [2]
1 | B1 | binds | 
2 | B2 | binds | 
3 | B3 |  | binds
4 | B4 | binds | 
5 | B5 | binds | 
6 | B6 |  | binds
